Measured values reported in publication PMC11871066, “Structure-based discovery of hydrocarbon-stapled paxillin peptides that block FAK scaffolding in cancer” (Nature Communications, 2025).

Tests used:
[1] = target: Recombinant FAK FAT protein (fluorescence polarization assay) (human) (UniProt Q05397); test: FP
[2] = target: Biotinylated AviTag FAK FAT protein (UniProt Q05397); test: SPR; settings: left panel, two-site binding model, peptide 200 µM to 49 nM, n = 5, X = olefinic amino acids joined by an i,i + 7 hydrocarbon staple
Chain of Biotinylated AviTag FAK FAT protein (Q05397 whole entry): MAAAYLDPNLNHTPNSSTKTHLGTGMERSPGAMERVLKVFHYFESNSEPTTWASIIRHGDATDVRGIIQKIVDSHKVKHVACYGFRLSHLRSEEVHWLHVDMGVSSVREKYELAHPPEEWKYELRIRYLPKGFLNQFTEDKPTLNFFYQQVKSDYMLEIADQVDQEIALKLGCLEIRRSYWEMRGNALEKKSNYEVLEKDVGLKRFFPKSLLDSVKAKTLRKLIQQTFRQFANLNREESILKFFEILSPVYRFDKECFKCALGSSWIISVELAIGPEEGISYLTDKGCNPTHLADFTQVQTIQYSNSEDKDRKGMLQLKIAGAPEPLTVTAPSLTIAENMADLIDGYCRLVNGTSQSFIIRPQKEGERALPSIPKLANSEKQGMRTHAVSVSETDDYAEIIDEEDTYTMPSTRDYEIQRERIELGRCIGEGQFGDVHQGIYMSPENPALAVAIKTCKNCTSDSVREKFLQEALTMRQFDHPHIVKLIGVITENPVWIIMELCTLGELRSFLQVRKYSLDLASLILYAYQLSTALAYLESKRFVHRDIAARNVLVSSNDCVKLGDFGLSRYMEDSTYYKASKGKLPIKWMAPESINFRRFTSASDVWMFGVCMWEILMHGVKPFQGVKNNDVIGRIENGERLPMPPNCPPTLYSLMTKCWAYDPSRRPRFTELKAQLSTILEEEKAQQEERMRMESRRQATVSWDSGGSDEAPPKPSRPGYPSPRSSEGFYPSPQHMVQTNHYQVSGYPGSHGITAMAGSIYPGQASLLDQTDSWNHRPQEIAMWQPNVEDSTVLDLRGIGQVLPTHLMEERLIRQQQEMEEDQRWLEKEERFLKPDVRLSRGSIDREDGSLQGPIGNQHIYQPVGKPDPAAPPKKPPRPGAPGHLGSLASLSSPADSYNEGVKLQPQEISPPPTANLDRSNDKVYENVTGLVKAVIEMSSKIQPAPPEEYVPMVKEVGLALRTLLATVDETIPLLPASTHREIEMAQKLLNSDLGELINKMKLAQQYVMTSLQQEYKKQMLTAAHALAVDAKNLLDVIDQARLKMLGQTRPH

Chain of Negative control peptide 2014 (1907 with L145E and L152E) (P49023 whole entry L145E/L152E, looked up, tested part not stated): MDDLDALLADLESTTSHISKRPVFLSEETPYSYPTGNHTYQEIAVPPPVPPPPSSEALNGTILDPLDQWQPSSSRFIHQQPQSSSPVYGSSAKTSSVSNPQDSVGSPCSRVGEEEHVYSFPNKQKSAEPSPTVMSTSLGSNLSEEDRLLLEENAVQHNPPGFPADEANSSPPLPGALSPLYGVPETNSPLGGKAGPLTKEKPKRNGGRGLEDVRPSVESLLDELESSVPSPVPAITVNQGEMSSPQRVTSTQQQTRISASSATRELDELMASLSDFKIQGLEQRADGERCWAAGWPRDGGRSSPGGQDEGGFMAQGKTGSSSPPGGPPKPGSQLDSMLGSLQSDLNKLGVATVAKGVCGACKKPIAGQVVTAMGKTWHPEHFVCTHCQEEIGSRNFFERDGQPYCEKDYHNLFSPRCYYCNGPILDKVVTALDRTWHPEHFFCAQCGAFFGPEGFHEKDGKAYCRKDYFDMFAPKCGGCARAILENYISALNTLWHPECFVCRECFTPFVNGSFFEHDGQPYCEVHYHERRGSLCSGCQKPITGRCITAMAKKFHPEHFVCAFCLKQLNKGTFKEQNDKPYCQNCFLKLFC
Chain of Recombinant FAK FAT protein (fluorescence polarization assay) (human) (Q05397 whole entry): as the sequence (Q05397 whole entry) above

Ki [1] [mM] | Substance | Kd ([2]; KD1) [µM] | Kd ([2]; KD2) [µM]
> 1.25 | Negative control peptide 2014 (1907 with L145E and L152E) (from UniProt P49023 141-153) | – | –
– | Paxillin LD2 peptide (141-…-153) S143X; L150X | 0.8 | 8.7
